In patent publication US20230147852A1 (SORRENTO THERAPEUTICS, published 2023):

Target: T1, Recombinant human LAG3-His (Sino Biological; catalogue No. 16498-H08H) (human, UniProt P18627 23-450)
T1 construct: also called human LAG3 His-tag protein; CD223
T1 sequence: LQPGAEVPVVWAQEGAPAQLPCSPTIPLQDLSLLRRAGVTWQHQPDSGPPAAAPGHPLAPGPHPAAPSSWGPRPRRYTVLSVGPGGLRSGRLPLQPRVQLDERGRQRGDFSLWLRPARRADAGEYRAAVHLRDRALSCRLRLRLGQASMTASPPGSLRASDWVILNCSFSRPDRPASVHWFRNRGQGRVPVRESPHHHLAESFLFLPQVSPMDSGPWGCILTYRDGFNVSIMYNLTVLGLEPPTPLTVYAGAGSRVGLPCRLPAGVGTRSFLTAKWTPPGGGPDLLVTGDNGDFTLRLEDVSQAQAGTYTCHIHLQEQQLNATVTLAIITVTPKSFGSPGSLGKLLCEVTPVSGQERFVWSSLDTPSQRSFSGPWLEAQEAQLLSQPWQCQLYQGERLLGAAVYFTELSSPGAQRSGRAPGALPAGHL
Assay: ELISA: antibody coated at 5 µg/mL, soluble human LAG3-His titrated (x-axis: Human LAG3, µg/ml), OD at 450nm

B1: 2D12-2E3-N102D (antibody, V domains shown)
VH: EVQLVESGGGLVQPGRSLRLSCVASGDGMSDYDMHWVRQAPGKGLEWVSGIGWNSGTIDYADSVKGRFIISRDNAKNSLYLQMNSLRPEDTALYYCAKEILDYSWMSVYGMDVWGQGTTVTVSS
VL: DIQMTQSPSSLSASVGDRVTITCRASQNIGTYLNWYQQSPGKAPKLLIYGASSLHSGVPSRVSGSGSGTDFTLTINTLQPEDFATYFCQQSYNTPPTFGQGTKVEIK
notes: also called anti-LAG3 antibody 2D12-2E3-N102D
In the case of B1, the “EC50 (read off the curve)” value is reported as ~0.04 µg/mL.
